# Laboratory results: article PMC12912425, “Collagen-targeted tracers for molecular imaging of atrial fibrosis and sensitive detection of atrial fibrillation” (npj Cardiovascular Health, 2025)
# Tests used:
# [1] = Blood clearance of Cy5.5-labeled tracers after IV injection; format: in vivo, mouse; conditions: Cy5.5-conjugated tracer 0.5 mg/kg IV; mixed male/female 'AF + HF' and control mice, 28-31 weeks; blood NIR fluorescence at 2-4, 12, 240 min; one-phase decay fit; Mean±SEM, n=4 (EP-3533), n=8 (T-peptide)
# Experimental: ‘AF + HF’ mice and non-transgenic controls (28–31 weeks) were intravenously injected with Cy5.5-labeled T-peptide or EP-3533 (0.5 mg/kg), as described above. Blood samples (2.5 µl) were collected from the opposite tail vein at 2–4, 12 and 240 min, and diluted in 47.5 µl of citrated PBS (0.32% w/v sodium citrate). 50 µl samples were transferred into 96-well plates (Optiplate, black-walled, transparent bottom; PerkinElmer, MA, USA) and scanned on the Odyssey CLx NIRF scanner using the ‘Manual L1’ intensity and 3 mm focus offset settings. Following subtraction of unlabeled blood background, the total fluorescence per well was plotted against time. The blood fluorescence levels at t = 0 and half-life were extrapolated from a one-phase decay non-linear regression, and the data was presented as percentage from the value of t = 0[26].
# Mouse plasma stability = format: in vitro ADME; conditions: Cy5.5-T-peptide 100 µg in 200 µL naïve C57BL/6 mouse plasma (citrated), 37 °C, acetonitrile precipitation, HPLC C18, 280 nm
# Experimental: Cy5.5-T-Peptide (100 µg, 10 µL in PBS) was added to 200 µL of naïve C57BL/6 mouse plasma and the sample was incubated at 37 °C over 4 h. Aliquots (40 µL) were taken from the mixture at 5, 10, 30, 60 and 240 min, and then added to 40 µL of acetonitrile. The formed precipitates were separated by centrifugation and the supernatant was analyzed by HPLC. The percentage of decomposition at each timepoint was then calculated from the chromatograms (Supplementary Fig. 1). The HPLC conditions were: Phenomenex Luna® 5 µm C18(2) 100 Å, LC Column 150 ×4.6 mm at a flow rate of 1 mL/min (Method: 5–95% buffer B to A over 20 min, λabs = 280 nm).
# [2] = test system: MMP-2-degraded collagen IV
# Experimental: Ex vivo fluorescent imaging was performed according to our published protocol[26]. In brief, fluorescently-tagged EP-3533 or the T-peptide were injected intravenously into mice at 0.5 mg/kg via the tail vein. The S-peptide was delivered at 0.466 mg/kg, being the identical mole equivalent to the T-peptide (0.258 µmol/kg). Injections were performed by a person blinded to the administered substance. Animals were humanely euthanised 4 h post-injection by an overdose of ketamine (300 mg/kg) and xylazine (30 mg/kg) and perfused via the heart with 20 ml of PBS. The liver, lung, spleen, kidney, brain, thigh muscle and the heart were next harvested and the atria separated from the ventricles. Organs were then scanned on the Odyssey CLx NIRF 2-D scanner (Li-Cor Biosciences, NE, USA) at 169 µm resolution using the ‘Manual L1’ or ‘L2’ intensity and 0.5 mm focus offset settings. A noninjected mouse served for background correction. The mean fluorescence intensity value per pixel (1 pixel = 169 × 169 µm = 0.0285 mm^2) were then extracted from regions of interest using Image Studio 5.2 software (Li-Cor Biosciences).
# [3] = 'AF + HF' mice, Cy5.5 conjugates equimolar 0.258 µmol/kg IV, 4 h, ex vivo NIR, S-peptide signal corrected for brightness, n=5 per group
substance,measurement,setting,value
TLTYTWS [Cy5.5-T-peptide],blood (circulating) half-life,[1],9.23 ± 0.9 min
same,tracer remaining intact after 60 min in mouse plasma,Mouse plasma stability; 60 min,60%
same,tracer remaining intact after 4 h in mouse plasma,Mouse plasma stability; 240 min,22%
same,T-peptide binding in atria relative to the S-peptide,[2]; [3],1.72 fold
same,T-peptide binding in ventricles relative to the S-peptide,[2]; [3],1.78 fold
same,atria/ventricles retention in 'AF + HF' mice,"[2]; mouse, in vivo",2.61 fold
